Tests used:
[1] = target: IGF-I receptor (cell line of the PathHunter IGF1R Functional Assay, DiscoverX) (UniProt P08069); experiment: cell-based or functional assay
[2] = target: insulin receptor (cell line of the PathHunter INSR Functional Assay, DiscoverX) (UniProt P06213); experiment: cell-based or functional assay

Row | Substance | activation of the IGF-I receptor (PathHunter, solvent group = 100%) at 5 nM [1] [%] | activation of the IGF-I receptor (PathHunter, solvent group = 100%) at 50 nM [1] [%] | activation of the insulin receptor (PathHunter, solvent group = 100%) at 5 nM [2] [%] | activation of the insulin receptor (PathHunter, solvent group = 100%) at 50 nM [2] [%] | activation of the IGF-I receptor (PathHunter, solvent group = 100%) at 0.5 nM [1] [%]
1 | FLAG M2 antibody | 109 | 109 | 104 | 111 | 
2 | Insulin (ligand) | 1240 | 4620 |  |  | 184
